# Experimental data: ChEMBL document CHEMBL3526024, “Oral availability of cefadroxil depends on ABCC3 and ABCC4” (Drug Metab Dispos, 2012)
# B1: ATP-binding cassette sub-family C member 3 (Homo sapiens) (protein)
# chain: MDALCGSGELGSKFWDSNLSVHTENPDLTPCFQNSLLAWVPCIYLWVALPCYLLYLRHHCRGYIILSHLSKLKMVLGVLLWCVSWADLFYSFHGLVHGRAPAPVFFVTPLVVGVTMLLATLLIQYERLQGVQSSGVLIIFWFLCVVCAIVPFRSKILLAKAEGEISDPFRFTTFYIHFALVLSALILACFREKPPFFSAKNVDPNPYPETSAGFLSRLFFWWFTKMAIYGYRHPLEEKDLWSLKEEDRSQMVVQQLLEAWRKQEKQTARHKASAAPGKNASGEDEVLLGARPRPRKPSFLKALLATFGSSFLISACFKLIQDLLSFINPQLLSILIRFISNPMAPSWWGFLVAGLMFLCSMMQSLILQHYYHYIFVTGVKFRTGIMGVIYRKALVITNSVKRASTVGEIVNLMSVDAQRFMDLAPFLNLLWSAPLQIILAIYFLWQNLGPSVLAGVAFMVLLIPLNGAVAVKMRAFQVKQMKLKDSRIKLMSEILNGIKVLKLYAWEPSFLKQVEGIRQGELQLLRTAAYLHTTTTFTWMCSPFLVTLITLWVYVYVDPNNVLDAEKAFVSVSLFNILRLPLNMLPQLISNLTQASVSLKRIQQFLSQEELDPQSVERKTISPGYAITIHSGTFTWAQDLPPTLHSLDIQVPKGALVAVVGPVGCGKSSLVSALLGEMEKLEGKVHMKGSVAYVPQQAWIQNCTLQENVLFGKALNPKRYQQTLEACALLADLEMLPGGDQTEIGEKGINLSGGQRQRVSLARAVYSDADIFLLDDPLSAVDSHVAKHIFDHVIGPEGVLAGKTRVLVTHGISFLPQTDFIIVLADGQVSEMGPYPALLQRNGSFANFLCNYAPDEDQGHLEDSWTALEGAEDKEALLIEDTLSNHTDLTDNDPVTYVVQKQFMRQLSALSSDGEGQGRPVPRRHLGPSEKVQVTEAKADGALTQEEKAAIGTVELSVFWDYAKAVGLCTTLAICLLYVGQSAAAIGANVWLSAWTNDAMADSRQNNTSLRLGVYAALGILQGFLVMLAAMAMAAGGIQAARVLHQALLHNKIRSPQSFFDTTPSGRILNCFSKDIYVVDEVLAPVILMLLNSFFNAISTLVVIMASTPLFTVVILPLAVLYTLVQRFYAATSRQLKRLESVSRSPIYSHFSETVTGASVIRAYNRSRDFEIISDTKVDANQRSCYPYIISNRWLSIGVEFVGNCVVLFAALFAVIGRSSLNPGLVGLSVSYSLQVTFALNWMIRMMSDLESNIVAVERVKEYSKTETEAPWVVEGSRPPEGWPPRGEVEFRNYSVRYRPGLDLVLRDLSLHVHGGEKVGIVGRTGAGKSSMTLCLFRILEAAKGEIRIDGLNVADIGLHDLRSQLTIIPQDPILFSGTLRMNLDPFGSYSEEDIWWALELSHLHTFVSSQPAGLDFQCSEGGENLSVGQRQLVCLARALLRKSRILVLDEATAAIDLETDNLIQATIRTQFDTCTVLTIAHRLNTIMDYTRVLVLDKGVVAEFDSPANLIAARGIFYGMARDAGLA
# B2: Multidrug resistance-associated protein 1 (Homo sapiens) (protein)
# chain: MALRGFCSADGSDPLWDWNVTWNTSNPDFTKCFQNTVLVWVPCFYLWACFPFYFLYLSRHDRGYIQMTPLNKTKTALGFLLWIVCWADLFYSFWERSRGIFLAPVFLVSPTLLGITMLLATFLIQLERRKGVQSSGIMLTFWLVALVCALAILRSKIMTALKEDAQVDLFRDITFYVYFSLLLIQLVLSCFSDRSPLFSETIHDPNPCPESSASFLSRITFWWITGLIVRGYRQPLEGSDLWSLNKEDTSEQVVPVLVKNWKKECAKTRKQPVKVVYSSKDPAQPKESSKVDANEEVEALIVKSPQKEWNPSLFKVLYKTFGPYFLMSFFFKAIHDLMMFSGPQILKLLIKFVNDTKAPDWQGYFYTVLLFVTACLQTLVLHQYFHICFVSGMRIKTAVIGAVYRKALVITNSARKSSTVGEIVNLMSVDAQRFMDLATYINMIWSAPLQVILALYLLWLNLGPSVLAGVAVMVLMVPVNAVMAMKTKTYQVAHMKSKDNRIKLMNEILNGIKVLKLYAWELAFKDKVLAIRQEELKVLKKSAYLSAVGTFTWVCTPFLVALCTFAVYVTIDENNILDAQTAFVSLALFNILRFPLNILPMVISSIVQASVSLKRLRIFLSHEELEPDSIERRPVKDGGGTNSITVRNATFTWARSDPPTLNGITFSIPEGALVAVVGQVGCGKSSLLSALLAEMDKVEGHVAIKGSVAYVPQQAWIQNDSLRENILFGCQLEEPYYRSVIQACALLPDLEILPSGDRTEIGEKGVNLSGGQKQRVSLARAVYSNADIYLFDDPLSAVDAHVGKHIFENVIGPKGMLKNKTRILVTHSMSYLPQVDVIIVMSGGKISEMGSYQELLARDGAFAEFLRTYASTEQEQDAEENGVTGVSGPGKEAKQMENGMLVTDSAGKQLQRQLSSSSSYSGDISRHHNSTAELQKAEAKKEETWKLMEADKAQTGQVKLSVYWDYMKAIGLFISFLSIFLFMCNHVSALASNYWLSLWTDDPIVNGTQEHTKVRLSVYGALGISQGIAVFGYSMAVSIGGILASRCLHVDLLHSILRSPMSFFERTPSGNLVNRFSKELDTVDSMIPEVIKMFMGSLFNVIGACIVILLATPIAAIIIPPLGLIYFFVQRFYVASSRQLKRLESVSRSPVYSHFNETLLGVSVIRAFEEQERFIHQSDLKVDENQKAYYPSIVANRWLAVRLECVGNCIVLFAALFAVISRHSLSAGLVGLSVSYSLQVTTYLNWLVRMSSEMETNIVAVERLKEYSETEKEAPWQIQETAPPSSWPQVGRVEFRNYCLRYREDLDFVLRHINVTINGGEKVGIVGRTGAGKSSLTLGLFRINESAEGEIIIDGINIAKIGLHDLRFKITIIPQDPVLFSGSLRMNLDPFSQYSDEEVWTSLELAHLKDFVSALPDKLDHECAEGGENLSVGQRQLVCLARALLRKTKILVLDEATAAVDLETDDLIQSTIRTQFEDCTVLTIAHRLNTIMDYTRVIVLDKGEIQEYGAPSDLLQQRGLFYSMAKDAGLV
# B3: ATP-binding cassette sub-family C member 4 (Homo sapiens) (protein)
# chain: MLPVYQEVKPNPLQDANLCSRVFFWWLNPLFKIGHKRRLEEDDMYSVLPEDRSQHLGEELQGFWDKEVLRAENDAQKPSLTRAIIKCYWKSYLVLGIFTLIEESAKVIQPIFLGKIINYFENYDPMDSVALNTAYAYATVLTFCTLILAILHHLYFYHVQCAGMRLRVAMCHMIYRKALRLSNMAMGKTTTGQIVNLLSNDVNKFDQVTVFLHFLWAGPLQAIAVTALLWMEIGISCLAGMAVLIILLPLQSCFGKLFSSLRSKTATFTDARIRTMNEVITGIRIIKMYAWEKSFSNLITNLRKKEISKILRSSCLRGMNLASFFSASKIIVFVTFTTYVLLGSVITASRVFVAVTLYGAVRLTVTLFFPSAIERVSEAIVSIRRIQTFLLLDEISQRNRQLPSDGKKMVHVQDFTAFWDKASETPTLQGLSFTVRPGELLAVVGPVGAGKSSLLSAVLGELAPSHGLVSVHGRIAYVSQQPWVFSGTLRSNILFGKKYEKERYEKVIKACALKKDLQLLEDGDLTVIGDRGTTLSGGQKARVNLARAVYQDADIYLLDDPLSAVDAEVSRHLFELCICQILHEKITILVTHQLQYLKAASQILILKDGKMVQKGTYTEFLKSGIDFGSLLKKDNEESEQPPVPGTPTLRNRTFSESSVWSQQSSRPSLKDGALESQDTENVPVTLSEENRSEGKVGFQAYKNYFRAGAHWIVFIFLILLNTAAQVAYVLQDWWLSYWANKQSMLNVTVNGGGNVTEKLDLNWYLGIYSGLTVATVLFGIARSLLVFYVLVNSSQTLHNKMFESILKAPVLFFDRNPIGRILNRFSKDIGHLDDLLPLTFLDFIQTLLQVVGVVSVAVAVIPWIAIPLVPLGIIFIFLRRYFLETSRDVKRLESTTRSPVFSHLSSSLQGLWTIRAYKAEERCQELFDAHQDLHSEAWFLFLTTSRWFAVRLDAICAMFVIIVAFGSLILAKTLDAGQVGLALSYALTLMGMFQWCVRQSAEVENMMISVERVIEYTDLEKEAPWEYQKRPPPAWPHEGVIIFDNVNFMYSPGGPLVLKHLTALIKSQEKVGIVGRTGAGKSSLISALFRLSEPEGKIWIDKILTTEIGLHDLRKKMSIIPQEPVLFTGTMRKNLDPFNEHTDEELWNALQEVQLKETIEDLPGKMDTELAESGSNFSVGQRQLVCLARAILRKNQILIIDEATANVDPRTDELIQKKIREKFAHCTVLTIAHRLNTIIDSDKIMVLDSGRLKEYDEPYVLLQNKESLFYKMVQQLGKAEAAALTETAKQVYFKRNYPHIGHTDHMVTNTSNGQPSTLTIFETAL
# Experiments:
# [1] = substrate: CC1=C(C(=O)O)N2C(=O)[C@@H](NC(=O)[C@H](N)c3ccc(O)cc3)[C@H]2SC1; assay: Activity of recombinant human ABCC3 expressed in baculovirus infected insect Sf21 cell plasma membrane vesicles assessed as transporter-mediated drug uptake by liquid scintillation counting analysis in presence of ATP; assay type: ADME
# [2] = substrate: CC1=C(C(=O)O)N2C(=O)[C@@H](NC(=O)[C@H](N)c3ccc(O)cc3)[C@H]2SC1; assay: Activity of recombinant human ABCC1 expressed in baculovirus infected insect Sf21 cell plasma membrane vesicles assessed as transporter-mediated drug uptake by liquid scintillation counting analysis in presence of ATP; assay type: ADME
# [3] = substrate: CO/N=C(\C(=O)N[C@@H]1C(=O)N2C(C(=O)O)=CCS[C@H]12)c1csc(N)n1; assay: (§1) Activity of recombinant human MRP4 expressed in adenovirus infected HEK293 cell plasma membrane vesicles assessed as transporter-mediated drug uptake after 2 mins by Michaelis-Menten plot analysis in presence of ATP; assay type: ADME, cell-based
# [4] = substrate: Cc1nnc(SCC2=C(C(=O)O)N3C(=O)[C@@H](NC(=O)Cn4cnnn4)[C@H]3SC2)s1; assay: as §1; assay type: ADME, cell-based
# [5] = substrate: CC1=C(C(=O)O)N2C(=O)[C@@H](NC(=O)[C@H](N)c3ccc(O)cc3)[C@H]2SC1; assay: Activity of recombinant human ABCC4 expressed in baculovirus infected insect Sf21 cell plasma membrane vesicles assessed as transporter-mediated drug uptake by liquid scintillation counting analysis in presence of ATP; assay type: ADME
protein,measurement,setting,value
B1,Km,[1],2500 µM
same,Vmax,[1],0.0006 µmol/min
B2,Km,[2],3900 µM
same,Vmax,[2],0.0124 µmol/min
B3,Km,[3],18 µM
same,Km,[4],81 µM
same,Km,[5],250 µM
same,Vmax,[5],0.0012 µmol/min
